# Laboratory results taken from the supplement of paper PMC12338614.
# ± gives the uncertainty stated by the source.
# B1: library; numbered along this chain (parent)
# chain: MEVVDPQQLGMFTEGELMSVGMDTFIHRIDSTEVIYQPRRKRAKLIGKYLMGDLLGEGSYGKVKEVLDSETLCRRAVKILKKKKLRRIPNGEANVKKEIQLLRRLRHKNVIQLVDVLYNEEKQKMYMVMEYCVCGMQEMLDSVPEKRFPVCQAHGYFCQLIDGLEYLHSQGIVHKDIKPGNLLLTTGGTLKISDLGVAEALHPFAADDTCRTSQGSPAFQPPEIANGLDTFSGFKVDIWSAGVTLYNITTGLYPFEGDNIYKLFENIGKGSYAIPGDCGPPLSDLLKGMLEYEPAKRFSIRQIRQHSWFRKKHPPAEAPVPIPPSPDTKDRWRSMTVVPYLEDLHGADEDEDLFDIEDDIIYTQDFTVPGQVPEEEASHNGQRRGLPKAVCMNGTEAAQLSTKSRAEGRAPNPARKACSASSKIRRLSACKQQ
# Variants of: B1
# Assay: STK11 functional score (HeLa growth suppression), rescaled enrichment; synonymous median = 1, nonsense median = 0 (normalised score)
# Conditions: with HeLa; variant type: missense
# Method in brief: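 Functional scores are post/pre-selection log ratios corrected to wild type, rescaled to synonymous and nonsense medians, merged over codons and replicate transfections, and given bootstrapped error. They come from POPCode libraries of codon-optimised STK11 integrated by Bxb1 at an AAVS1 landing pad in HeLa, three regions each transfected three times, with BFP-negative, mCherry-positive integrants sorted by FACS and tiled gDNA amplicons sequenced on NextSeq.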
row,Variant,STK11 functional score
1,MEVVDPQQLGMFTEGELMSVGMDTFIHRIDSTEVIYQPRRKRAKLIGKYLMGDLLGEGSYGKVKEVLDSETLCRRAVKILKKKKLRRIPNGEANVKKEIQLLRRLRHKNVIQLVDVLYNEEKQKMYMVMEYCVCGMQEMLDSVPEKRFPVCQAHGYFCQLIDGLEYLHSQGIVHKWIKPGNLLLTTGGTLKISDLGVAEALHPFAADDTCRTSQGSPAFQPPEIANGLDTFSGFKVDIWSAGVTLYNITTGLYPFEGDNIYKLFENIGKGSYAIPGDCGPPLSDLLKGMLEYEPAKRFSIRQIRQHSWFRKKHPPAEAPVPIPPSPDTKDRWRSMTVVPYLEDLHGADEDEDLFDIEDDIIYTQDFTVPGQVPEEEASHNGQRRGLPKAVCMNGTEAAQLSTKSRAEGRAPNPARKACSASSKIRRLSACKQQ [D176W],-0.0742 ± 0.054
2,MEVVDPQQLGMFTEGELMSVGMDTFIHRIDSTEVIYQPRRKRAKLIGKYLMGDLLGEGSYGKVKEVLDSETLCRRAVKILKKKKLRRIPNGEANVKKEIQLLRRLRHKNVIQLVDVLYNEEKQKMYMVMEYCVCGMQEMLDSVPEKRFPVCQAHGYFCQLIDGLEYLHSQGIVHKDIKPGNLLLTTGGTLKISDLGVAEALHPFAADDTCRTSQGSPAFQPPEIANGLDTFSGFKVDIWSAGVTLYNITTGLYPFEGDNIYKLFENIGKGSYAIPGDCGPPLSDLLKGMLEYEPAKRFSIRQIRQHSWFRKKHPPAEAPVPIPPSPDTKDRWRSMTVVPYLEDLHGADEDEDLFDIEDDIIYTQDFTVPGQVPEEEASHNGQRRGLPKAVCMNGTEAAQLSTKSRAEGRAPNPARKACSASSKARRLSACKQQ [I424A],1.58 ± 0.27
3,MEVVDPQQLGMFTEGELMSVGMDTFIHRIDSTEVIYQPRRKRAKLIGKYLMGDLLGEGSYGKVKEVLDSETLCRRAVKILKKKKLRRIPNGEANVKKEIQLLRRLRHKNVIQLVDVLYNEEKQKMYMVMEYCVCGMQEMLDSVPEKRFPVCQAHGYFCQLIDCLEYLHSQGIVHKDIKPGNLLLTTGGTLKISDLGVAEALHPFAADDTCRTSQGSPAFQPPEIANGLDTFSGFKVDIWSAGVTLYNITTGLYPFEGDNIYKLFENIGKGSYAIPGDCGPPLSDLLKGMLEYEPAKRFSIRQIRQHSWFRKKHPPAEAPVPIPPSPDTKDRWRSMTVVPYLEDLHGADEDEDLFDIEDDIIYTQDFTVPGQVPEEEASHNGQRRGLPKAVCMNGTEAAQLSTKSRAEGRAPNPARKACSASSKIRRLSACKQQ [G163C],0.245 ± 0.11
4,MEVVDPQQLGMFTEGELMSVGMDTFIHRIDSTEVIYQPRRKRAKLIGKYLMGDLLGEGSYGKVKEVLDSETLCRRAVKILKKKKLRRIPNGEANVKKEIQLLRRLRHKNVIQLVDVLYNEEKQKMYMVMEYCVCGMQEMLDSVPEKRFPVCQAHGYFCQLIDGLEYLHSQGIVHKDIKPGNLLLTTGGTLKISDLGVAEALHPFAADDTCRTSQGSPAFQPPEIANGLDTFSGFKVDIWSAGVTLYNITTGLYPFEGDNIYKLFENIGKGSYAIPGDCGPPLSDLLKGMLEYEPAKRFSIRQIRQHSWFRKKHPPAEAPVPIPPSPDTKDRWRSMTVVPYLEDLHGADEDEDLFDIEDDIIYTQDFTVPGQVPEEEASHNHQRRGLPKAVCMNGTEAAQLSTKSRAEGRAPNPARKACSASSKIRRLSACKQQ [G381H],1.6 ± 0.29
5,MEVVDPQQLGMFTEGELMSVGMDTFIHRIDSTEVIYQPRRKRAKLIGKYLMGDLLGEGSYGKVKEVLDSETLCRRAVKILKKKKLRRIPNGEANVKKEIQLLRRLRHKNVIQLVDVLYNEEKQKMYMVMEYCACGMQEMLDSVPEKRFPVCQAHGYFCQLIDGLEYLHSQGIVHKDIKPGNLLLTTGGTLKISDLGVAEALHPFAADDTCRTSQGSPAFQPPEIANGLDTFSGFKVDIWSAGVTLYNITTGLYPFEGDNIYKLFENIGKGSYAIPGDCGPPLSDLLKGMLEYEPAKRFSIRQIRQHSWFRKKHPPAEAPVPIPPSPDTKDRWRSMTVVPYLEDLHGADEDEDLFDIEDDIIYTQDFTVPGQVPEEEASHNGQRRGLPKAVCMNGTEAAQLSTKSRAEGRAPNPARKACSASSKIRRLSACKQQ [V133A],1.41 ± 0.4
6,MEVVDPQQLGMFTEGELMSVGMDTFIHRIDSTEVIYQPRRKRAKLIGKYLMGDLLGEGSYGKVKEVLDSETLCRRAVKILKKKKLRRIPNGEANVKKEIQLLRRLRHKNVIQLVDVLYNEEKQKMYMVMEYCVCGMQEMLDSVPEKRFPVCQAHGYFCQLIDGLEYLHSQGIVHKDIKPGNLLLTTGGTLKISDLGVAEALHPFAADDTCRTSQGSPAFQGPEIANGLDTFSGFKVDIWSAGVTLYNITTGLYPFEGDNIYKLFENIGKGSYAIPGDCGPPLSDLLKGMLEYEPAKRFSIRQIRQHSWFRKKHPPAEAPVPIPPSPDTKDRWRSMTVVPYLEDLHGADEDEDLFDIEDDIIYTQDFTVPGQVPEEEASHNGQRRGLPKAVCMNGTEAAQLSTKSRAEGRAPNPARKACSASSKIRRLSACKQQ [P221G],1.03 ± 0.14
7,MEVVDPQQLGMFTEGELMSVGMDTFIHRIDSTEVIYQPRRKRAKLIGKYLMGDLLGEGSYGKVKEVLDSETLCRRAVKILKKKKLRRIPNGEANVKKEIQLLRRLRHKNVIQLVDVLYNEEKQKMYMVMEYCVCGMQEMLDSVPEKRFPVCQAHGYFCQLIDGLEYLHSQGIVHKDIKPGNLLLTTGGTLKISDLGVAEALHPFAADDTCRTSQGIPAFQPPEIANGLDTFSGFKVDIWSAGVTLYNITTGLYPFEGDNIYKLFENIGKGSYAIPGDCGPPLSDLLKGMLEYEPAKRFSIRQIRQHSWFRKKHPPAEAPVPIPPSPDTKDRWRSMTVVPYLEDLHGADEDEDLFDIEDDIIYTQDFTVPGQVPEEEASHNGQRRGLPKAVCMNGTEAAQLSTKSRAEGRAPNPARKACSASSKIRRLSACKQQ [S216I],0.119 ± 0.093
